To fix the notation:
T1: rhesus ERBB3 on transiently transfected HEK-293 cells (rhesus monkey (Macaca mulatta), UniProt P21860 20-1342 (human entry))
T1 construct: also called rhesus ERBB3+ HEK-293 cells
T1 chain: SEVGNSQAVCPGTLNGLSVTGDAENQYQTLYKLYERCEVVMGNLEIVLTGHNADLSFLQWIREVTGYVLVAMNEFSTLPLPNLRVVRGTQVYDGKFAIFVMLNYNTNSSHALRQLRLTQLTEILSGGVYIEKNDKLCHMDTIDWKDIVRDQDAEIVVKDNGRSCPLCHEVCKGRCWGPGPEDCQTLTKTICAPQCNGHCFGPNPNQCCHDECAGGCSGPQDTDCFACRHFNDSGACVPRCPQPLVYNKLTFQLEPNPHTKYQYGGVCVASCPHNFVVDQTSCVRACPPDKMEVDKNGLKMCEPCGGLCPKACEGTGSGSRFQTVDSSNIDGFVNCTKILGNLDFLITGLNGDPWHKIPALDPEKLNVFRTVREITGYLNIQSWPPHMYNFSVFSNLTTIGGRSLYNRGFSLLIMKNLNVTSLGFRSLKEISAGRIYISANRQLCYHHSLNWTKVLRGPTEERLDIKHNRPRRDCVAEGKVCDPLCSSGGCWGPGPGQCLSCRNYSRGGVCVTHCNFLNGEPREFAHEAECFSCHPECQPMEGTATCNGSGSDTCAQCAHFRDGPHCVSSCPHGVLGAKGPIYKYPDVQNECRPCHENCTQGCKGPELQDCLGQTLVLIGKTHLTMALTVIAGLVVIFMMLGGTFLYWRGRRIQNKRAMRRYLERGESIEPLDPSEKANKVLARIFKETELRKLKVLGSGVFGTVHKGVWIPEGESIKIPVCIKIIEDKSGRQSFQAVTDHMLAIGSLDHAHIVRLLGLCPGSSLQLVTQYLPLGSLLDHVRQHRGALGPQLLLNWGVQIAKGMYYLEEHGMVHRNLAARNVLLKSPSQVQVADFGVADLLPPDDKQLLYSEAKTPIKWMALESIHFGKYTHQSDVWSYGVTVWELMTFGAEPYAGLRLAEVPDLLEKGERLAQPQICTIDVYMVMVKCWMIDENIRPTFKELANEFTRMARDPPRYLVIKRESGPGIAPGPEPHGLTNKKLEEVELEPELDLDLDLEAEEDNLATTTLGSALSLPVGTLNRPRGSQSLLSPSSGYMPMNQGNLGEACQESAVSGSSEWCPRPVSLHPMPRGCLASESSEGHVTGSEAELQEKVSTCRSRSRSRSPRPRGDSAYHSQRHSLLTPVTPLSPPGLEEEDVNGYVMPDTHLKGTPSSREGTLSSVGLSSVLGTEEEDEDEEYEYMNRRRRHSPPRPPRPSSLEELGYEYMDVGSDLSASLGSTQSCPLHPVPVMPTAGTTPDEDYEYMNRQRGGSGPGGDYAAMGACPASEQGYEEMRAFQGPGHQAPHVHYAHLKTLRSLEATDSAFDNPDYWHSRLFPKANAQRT

T2: rhesus monkey ERBB3 human Fc tagged recombinant protein (rhesus monkey (Macaca mulatta), UniProt P21860 20-643 (human entry), limits assumed)
T2 construct: also called rhesus ERBB3-Fc; rhERBB3
T2 chain: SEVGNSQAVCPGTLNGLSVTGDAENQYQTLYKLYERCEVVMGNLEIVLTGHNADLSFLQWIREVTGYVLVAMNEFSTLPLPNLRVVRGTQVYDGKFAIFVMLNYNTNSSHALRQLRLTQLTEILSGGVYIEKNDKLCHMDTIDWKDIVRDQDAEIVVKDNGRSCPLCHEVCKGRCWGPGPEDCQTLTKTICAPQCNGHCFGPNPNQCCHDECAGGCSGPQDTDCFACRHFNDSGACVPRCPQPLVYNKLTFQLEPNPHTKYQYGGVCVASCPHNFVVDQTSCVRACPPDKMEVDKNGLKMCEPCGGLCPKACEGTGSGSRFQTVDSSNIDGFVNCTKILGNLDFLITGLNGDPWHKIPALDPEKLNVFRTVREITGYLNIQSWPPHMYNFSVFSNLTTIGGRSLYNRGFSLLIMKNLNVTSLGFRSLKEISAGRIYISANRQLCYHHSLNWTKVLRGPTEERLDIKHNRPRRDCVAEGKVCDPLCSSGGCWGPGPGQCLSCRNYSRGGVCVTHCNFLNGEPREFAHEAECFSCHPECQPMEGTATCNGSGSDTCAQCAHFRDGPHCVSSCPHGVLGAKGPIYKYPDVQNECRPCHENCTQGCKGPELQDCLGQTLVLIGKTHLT

B1: 15G11-DI7 IgG1 (antibody, V domains shown)
VH: QVQLVESGGGLVKPGGSLRLSCAASGFTFSDYSMSWIRQAPGKGLEWVSTISDSGTYTYYPDSVKGRFTISRDNAKNSLYLQMNSLRAEDTAVYYCAREWGDYDGFDFWGQGTLVTVSS
VL: DIQMTQSPSSLSASVGDRVTITCRASQEISSYLSWYQQKPGKAPKLLIYAASSLDTGVPSRFSGSGSGTDFTLTISSLQPEDFATYYCLQYDSSPYTFGGGTKVEIK
notes: Human IgG1 format, human Ckappa; also called 15G11-D17
B2: 15G11-DI8 IgG1 (antibody, V domains shown)
VH: B1 VH
VL: B1 VL with S31T
notes: Human IgG1 format, human Ckappa
B3: 15G11-DI3 IgG1 (antibody, V domains shown)
VH: B1 VH with S33G, I37V, T56S, W100L, F108Y
VL: B1 VL
notes: as for B2
B4: 15G11-DI6 IgG1 (antibody, V domains shown)
VH: B1 VH
VL: B1 VL with S31T, S94T
notes: as for B2
B5: 15G11-DI10 IgG1 (antibody, V domains shown)
VH: B1 VH with S33G, I37V, T56S, W100L, F108Y
VL: B1 VL with I48A, T56S, S94T
notes: as for B2
B6: 15G11-DI4 IgG1 (antibody, V domains shown)
VH: B1 VH with S33G, I37V, T56S, W100L, F108Y
VL: B1 VL with S31T
notes: as for B2
B7: 15G11-DI2 IgG1 (antibody, V domains shown)
VH: B1 VH with S33G, I37V, T56S, W100L, F108Y
VL: B1 VL with S31T, S94T
notes: as for B2
B8: 15G11-DI9 IgG1 (antibody, V domains shown)
VH: B1 VH
VL: B1 VL with S31T, S53T, D55Q, T56S, Y96L
notes: as for B2
B9: 15G11-DI1 IgG1 (antibody, V domains shown)
VH: B1 VH with S33G, I37V, T56S, W100L, F108Y
VL: B1 VL with S94T
notes: as for B2
B10: 15G11-DI5 IgG1 (antibody, V domains shown)
VH: B1 VH
VL: B1 VL with S94T
notes: as for B2
B11: 15G11-DI11 IgG1 (antibody, V domains shown)
VH: B1 VH with S33G, I37V, T56S, W100L, F108Y
VL: B1 VL with I29A, I48A, T56S
notes: as for B2

The values that follow come from patent US20200339702A1 (ULTRAHUMAN THIRTEEN, published 2020).

Residue numbers refer to the chain shown, from its start.

One assay deals with T3, human ERBB3 on transiently transfected HEK-293 cells (human, UniProt P21860 20-1342).
T3 construct: also called human ERBB3+ HEK-293 cells
The assay is described as follows: flow cytometry, human ERBB3-transfected HEK-293 cells, IgG1 titrated. Here is the method:
(§1) Purified IgGs were tested in FACs for binding to human and rhesus monkey ERBB3 expressed on transiently transfected HEK-293 cells and HEK-293 wild-type cells. The IgG samples were titrated in three-fold serial dilutions starting at 500 nM to 0.008 nM. Binding of IgGs was detected with a mouse anti-human IgG conjugated to FITC. Results were analyzed by examining the Mean Fluorescence Intensity (MFI) of 10000 cells per sample in the BL-1 channel detector of a flow cytometer (Attune™ NxT Acoustic Focusing Cytometer, Invitrogen/ThermoFisher Scientific).
(A flow cytometer gives signals particle by particle.)
As to B1, the binding result was “binds”.

In the case of B2, the binding result is listed as “binds”.

Turning to B3, the binding result is reported as “binds”.

Broadly, the EC50 (read off the curve) is the concentration that produces a half-maximal response. For B4, the “EC50 (read off the curve)” value was ~1 nM.

In the case of B5, the binding result was “binds”.

For the molecule B6, the binding result is on record as “binds”.

B7: the binding result was “binds”.

As to B8, the binding result is listed as “binds”.

For another assay, the target named is T1, rhesus ERBB3 on transiently transfected …. The assay is described as follows: flow cytometry, rhesus ERBB3-transfected HEK-293 cells, IgG1 titrated. Here is the method:
as §1
Take B9: the binding result was “binds”.

Turning to B1, the binding result is reported as “binds”.

Consider B2, for which the binding result is recorded as “binds”.

For B3, the binding result is recorded as “binds”.

Take B4: the half-maximal effective concentration (EC50 (read off the curve)) was ~0.3 nM.

In the case of B10, the binding result is “binds”.

With B5, the binding result was “binds”.

B6: the binding result is reported as “binds”.

In the case of B7, the binding result was “binds”.

For B8, the binding result is listed as “binds”.

In the next assay the target is T4, human ERBB3 human Fc tagged recombinant protein (human, UniProt P21860 20-643).
T4 construct: also called human ERBB3-Fc; huERBB3
Briefly: direct binding ELISA on coated human ERBB3-Fc, IgG1 titrated. Here is the method: (§2) Binding and cross-reactivity of the lead panel to the recombinant proteins was initially assessed by binding ELISA. The human ERBB3 human Fc tagged recombinant protein and the rhesus monkey ERBB3 human Fc tagged recombinant protein were coated to the surface of MaxiSorp™ flat-bottom 96 well plate at 1 μg/ml. The purified IgG samples were titrated in two fold serial dilutions starting from 500 nM to 0.008 nM and allowed to bind to the coated antigens. The Fabs were detected using mouse anti-c-myc antibody followed by donkey anti-mouse IgG conjugated to horseradish peroxidase. The IgGs were detected using the mouse anti-human IgG conjugated to horseradish peroxidase. Binding signals were visualized with 3,3′,5,5′-Tetramethylbenzidine Substrate Solution (TMB) and the absorbance measured at 450 nm.
On the technique in general: ELISA stands for enzyme-linked immunosorbent assay.
B1: the binding result is “binds”.

For B2, the binding result is “binds”.

With B3, the binding result is “binds”.

Take B10: the “EC50 (read off the curve)” value was ~0.2 nM.

On to B5, for which the binding result is on record as “binds”.

As to B6, the binding result is on record as “binds”.

With B7, the binding result is listed as “binds”.

For B8, the binding result is “binds”.

The target of the next assay is T2, rhesus monkey ERBB3 human Fc tagged …. The assay is described as follows: direct binding ELISA on coated rhesus ERBB3-Fc, IgG1 titrated. Here is the method: as §2
On to B9, for which the binding result was “binds”.

Take B1: the binding result is recorded as “binds”.

On to B2, for which the binding result is on record as “binds”.

For B3, the binding result is reported as “binds”.

On to B4, for which the binding result was “binds”.

With B10, the “EC50 (read off the curve)” value was ~0.2 nM.

For B5, the binding result is “binds”.

B6: the binding result is given as “binds”.

For B7, the binding result was “binds”.

B8: the binding result was “binds”.

The target of another assay is T5, human insulin (human, UniProt P01308 25-54; P01308 90-110, limits assumed).
T5 construct: Off-target protein in the development risk (polyreactivity) ELISA
T5 sequence (P01308 25-54 limits assumed, chain 1 of 2): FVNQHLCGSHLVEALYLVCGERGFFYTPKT
T5 sequence (P01308 90-110 limits assumed, chain 2 of 2): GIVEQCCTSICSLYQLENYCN
Briefly: development risk ELISA on insulin.
Consider B9, for which the binding score is < 10.

With B1, the binding score was < 10.

Take B2: the binding score is < 10.

Take B3: the binding score is < 10.

Regarding B4, the binding score was < 10.

Turning to B10, the binding score was < 10.

With B11, the binding score was < 10.

As to B6, the binding score was < 10.

Take B7: the binding score was < 10.

Take B8: the binding score was < 10.

For a further assay, the target named is T6, human ERBB3 His tagged, monomeric (human, UniProt P21860 20-643, biotinylated in the Alphascreen assays (sites not given)).
T6 construct: Used unbiotinylated as Biacore analyte and biotinylated in Alphascreen; treated as one molecule; also called human ERBB3-His (Acrobiosystems); biotinylated monomeric human ERBB3
The assay is described as follows: Alphascreen competition in solution, competitor h24C05 IgG1, biotinylated human ERBB3-His.
In the case of B9, the “IC50 (read off the curve)” value was ~0.5 nM.

B1: the binding result is listed as “binds”.

B2: the binding result was “binds”.

As for B3, the binding result was “binds”.

With B5, the binding result is recorded as “binds”.

As to B6, the binding result is reported as “binds”.

For B7, the binding result is on record as “binds”.

Turning to B8, the binding result is on record as “binds”.
